Laboratory results as given in paper PMC4259466 (Nature communications, 2014).

Target: Aurora B-phosphorylated WT His-PKM2 (human, UniProt P14618 1-531, phosphothreonine at 45 (by Aurora B in vitro))
Test: pull-down

Aurora B-phosphorylated WT His-PKM2, sequence (P14618 whole entry): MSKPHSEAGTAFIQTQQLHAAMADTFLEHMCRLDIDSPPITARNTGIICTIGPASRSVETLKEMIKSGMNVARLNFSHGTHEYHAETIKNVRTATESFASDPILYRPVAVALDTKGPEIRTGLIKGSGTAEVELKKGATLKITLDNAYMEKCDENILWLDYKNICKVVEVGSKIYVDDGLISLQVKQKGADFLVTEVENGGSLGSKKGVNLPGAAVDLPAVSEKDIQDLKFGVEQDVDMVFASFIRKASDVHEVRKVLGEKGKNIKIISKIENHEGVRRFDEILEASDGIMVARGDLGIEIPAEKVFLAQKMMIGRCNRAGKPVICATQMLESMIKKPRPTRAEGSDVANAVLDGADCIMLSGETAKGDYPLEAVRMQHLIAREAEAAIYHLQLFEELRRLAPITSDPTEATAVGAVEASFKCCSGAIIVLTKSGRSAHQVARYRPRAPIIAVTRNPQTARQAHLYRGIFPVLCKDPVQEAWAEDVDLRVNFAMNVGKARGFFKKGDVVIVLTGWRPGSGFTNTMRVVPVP

binding result: binds
B1: GST-MLC2 (wild type, recombinant) (natural protein)
chain: MAPKKAKKRAGGANSNVFSMFEQTQIQEFKEAFTIMDQNRDGFIDKNDLRDTFAALGRVNVKNEEIDEMIKEAPGPINFTVFLTMFGEKLKGADPEETILNAFKVFDPEGKGVLKADYVREMLTTQAERFSKEEVDQMFAAFPPDVTGNLDYKNLVHIITHGEEKD
